Measurements from patent US20120316071A1 (published 2012).
One block for each binder: values may come before it.

What was measured:
[1] = biological target: T1, rHuman P-Cadherin/Fc Chimera, CF (R&D Systems Cat#861-PC) (human, UniProt P22223 108-654); assay: MSD multispot ECL, antigen spotted on plate, Fab in solution; blank spot of this row 254
T1 construct: Bought recombinant protein; Fc part of the bought chimera not given

[2] = biological target: T2, rHuman IGF-1 sR (insulin-like growth factor-1 soluble receptor), CF (R&D Systems Cat#391-GR) (human, UniProt P08069 31-932); assay: as above
T2 construct: Bought recombinant soluble receptor; The column head prints only 'IGF-1'

[3] = biological target: T3, Recombinant Human DLL4 (R&D Systems Cat#1506-D4/CF) (human, UniProt Q9NR61 27-524); assay: as above
T3 construct: Bought recombinant protein; also called delta-like protein 4; rHuman DLL4

[4] = biological target: T4, rHuman EGF R/Fc Chimera, CF (R&D Systems Cat#344-ER) (human, UniProt P00533 25-645); assay: as above
T4 construct: Bought recombinant protein; Fc part of the bought chimera not given

[5] = biological target: T5, rHuman ErbB2/Fc Chimera, CF (R&D Systems Cat#1129-ER) (human, UniProt P04626 23-652); assay: as above
T5 construct: Bought recombinant protein; Fc part of the bought chimera not given

[6] = biological target: T6, rHuman HGF R/c-MET/Fc Chimera, CF (R&D Systems Cat#358-MT/CF) (human, UniProt P08581 25-932); assay: as above
T6 construct: Bought recombinant protein; also called HGF R/Fc; Fc part of the bought chimera not given

[7] = biological target: T1, rHuman P-Cadherin/Fc Chimera, CF (R&D …); assay: MSD multispot ECL, antigen spotted on plate, Fab in solution; blank spot of this row 184
[8] = biological target: T2, rHuman IGF-1 sR (insulin-like growth …); assay: as above
[9] = biological target: T3, Recombinant Human DLL4 (R&D Systems …); assay: as above
[10] = biological target: T4, rHuman EGF R/Fc Chimera, CF (R&D …); assay: as above
[11] = biological target: T5, rHuman ErbB2/Fc Chimera, CF (R&D …); assay: as above
[12] = biological target: T6, rHuman HGF R/c-MET/Fc Chimera, CF (R&D …); assay: as above
[13] = biological target: T1, rHuman P-Cadherin/Fc Chimera, CF (R&D …); assay: MSD multispot ECL, antigen spotted on plate, Fab in solution; blank spot of this row 338
[14] = biological target: T2, rHuman IGF-1 sR (insulin-like growth …); assay: as above
[15] = biological target: T3, Recombinant Human DLL4 (R&D Systems …); assay: as above
[16] = biological target: T4, rHuman EGF R/Fc Chimera, CF (R&D …); assay: as above
[17] = biological target: T5, rHuman ErbB2/Fc Chimera, CF (R&D …); assay: as above
[18] = biological target: T6, rHuman HGF R/c-MET/Fc Chimera, CF (R&D …); assay: as above
[19] = biological target: T1, rHuman P-Cadherin/Fc Chimera, CF (R&D …); assay: MSD multispot ECL, antigen spotted on plate, Fab in solution; blank spot of this row 407
[20] = biological target: T2, rHuman IGF-1 sR (insulin-like growth …); assay: as above
[21] = biological target: T3, Recombinant Human DLL4 (R&D Systems …); assay: as above
[22] = biological target: T4, rHuman EGF R/Fc Chimera, CF (R&D …); assay: as above
[23] = biological target: T5, rHuman ErbB2/Fc Chimera, CF (R&D …); assay: as above
[24] = biological target: T6, rHuman HGF R/c-MET/Fc Chimera, CF (R&D …); assay: as above
[25] = biological target: T7, Recombinant Human DLL4 (delta-like protein 4) (human, UniProt Q9NR61 27-524); assay: SPR, Fab on recombinant human DLL4
T7 construct: Bought recombinant human DLL4 (R&D Systems Cat#1506-D4/CF); also called rHuman DLL4; Delta-like ligand 4

[26] = biological target: T7, Recombinant Human DLL4 (delta-like …); assay: SPR, Fab on recombinant human DLL4; two-site binding, this site 89% by the footnote
[27] = biological target: T7, Recombinant Human DLL4 (delta-like …); assay: SPR, Fab on recombinant human DLL4; two-site binding, this site 10% by the footnote
[28] = biological target: T8, rHuman CD44/Fc Chimera, CF (R&D Systems Cat#3660-CD) (human, UniProt P16070 21-220); assay: MSD Multispot ECL, antigen spotted on plate, Fab in solution; blank spot of the row 373
T8 construct: Bought recombinant Fc chimera; Fc part of the bought chimera not given

[29] = biological target: T9, rHuman Erythropoietin R/Fc Chimera, CF (R&D Systems Cat#963-ER) (human, UniProt P19235 25-250); assay: as above
T9 construct: Bought recombinant Fc chimera; also called EPO R; EPO R/Fc; Fc part of the bought chimera not given
T9 sequence (looked up): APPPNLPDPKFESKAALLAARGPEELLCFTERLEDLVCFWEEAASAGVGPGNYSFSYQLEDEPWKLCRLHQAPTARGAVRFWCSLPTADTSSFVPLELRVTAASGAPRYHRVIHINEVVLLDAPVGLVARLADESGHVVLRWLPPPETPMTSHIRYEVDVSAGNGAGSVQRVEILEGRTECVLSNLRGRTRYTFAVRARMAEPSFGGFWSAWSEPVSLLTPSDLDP

[30] = biological target: T10, rHuman EGF R/Fc Chimera, CF (R&D Systems Cat#344-ER) (human, UniProt P00533 25-645); assay: as above
T10 construct: Bought recombinant Fc chimera; also called epidermal growth factor receptor; Fc part of the bought chimera not given

[31] = biological target: T11, Recombinant Human DLL4 (R&D Systems Cat#1506-D4/CF) (human, UniProt Q9NR61 27-524); assay: as above
T11 construct: Bought recombinant protein; also called delta-like protein 4; Delta-like 4

[32] = biological target: T12, rHuman HGF R/c-MET/Fc Chimera, CF (R&D Systems Cat#358-MT/CF) (human, UniProt P08581 25-932); assay: as above
T12 construct: Bought recombinant Fc chimera; also called HGF R/Fc; hepatocyte growth factor receptor; Fc part of the bought chimera not given

[33] = biological target: T13, rHuman P-Cadherin/Fc Chimera, CF (R&D Systems Cat#861-PC) (human, UniProt P22223 108-654); assay: as above
T13 construct: Bought recombinant Fc chimera; Fc part of the bought chimera not given

[34] = biological target: T14, rHuman Notch-1/Fc Chimera, CF (R&D Systems Cat#3647-TK) (human, UniProt P46531 19-526); assay: as above
T14 construct: Bought recombinant Fc chimera; Fc part of the bought chimera not given

ECL signal [1]: 138 | ECL signal [2]: 306 | ECL signal [3]: 148000 | ECL signal [4]: 209 | ECL signal [5]: 351 | ECL signal [6]: 176 | ECL signal [7]: 240 | ECL signal [8]: 173 | ECL signal [9]: 132000 | ECL signal [10]: 409 | ECL signal [11]: 322 | ECL signal [12]: 263 | ECL signal [13]: 399 | ECL signal [14]: 468 | ECL signal [15]: 149000 | ECL signal [16]: 425 | ECL signal [17]: 379 | ECL signal [18]: 332 | ECL signal [19]: 277 | ECL signal [20]: 357 | ECL signal [21]: 126000 | ECL signal [22]: 329 | ECL signal [23]: 292 | ECL signal [24]: 237
B1: Fab VH1-46_IGHD6-6*01_IGHJ1*01 S102A/S103P/S104F/H111F (H:APFF) & L6_IGKJ1*01 (Fab, V domains shown)
VH: QVQLVQSGAEVKKPGASVKVSCKASGYTFTSYYMHWVRQAPGQGLEWMGIINPSGGSTSYAQKFQGRVTMTRDTSTSTVYMELSSLRSEDTAVYYCAREEYAPFSAEYFQFWGQGTLVTVSS
VL: not shown
notes: Fab expressed in E. coli from plasmid A (CH1, His6 and Flag tags) and plasmid C (kappa CL); also called wildtype (light chain); H:APFF & L:wt

koff [25]: 0.0689 s⁻¹ | kon [25]: 444000 M⁻¹ s⁻¹ | Kd [26]: 155 nM | Kd [27]: 14 nM
B2: Fab VH1-46_IGHD6-6*01_IGHJ1*01 S102A/S103P/S104F/H111F (APFF) & L6_IGKJ1*01 S28N/S30D/S31H (NDH) (Fab, V domains shown)
VH: QVQLVQSGAEVKKPGASVKVSCKASGYTFTSYYMHWVRQAPGQGLEWMGIINPSGGSTSYAQKFQGRVTMTRDTSTSTVYMELSSLRSEDTAVYYCAREEYAPFSAEYFQFWGQGTLVTVSS
VL: EIVLTQSPATLSLSPGERATLSCRASQNVDHYLAWYQQKPGQAPRLLIYDASNRATGIPARFSGSGSGTDFTLTISSLEPEDFAVYYCQQRSNWPPWTFGQGTKVEIKR
notes: Fab with CH1 (Plasmid A, His6 and Flag tags) and kappa CL (Plasmid C); Some paragraphs print S28D/S30N/S31H for the same NDH chain; also called H:APFF & L:NDH; APFF-NDH

ECL signal [28]: 547 | ECL signal [29]: 551 | ECL signal [30]: 757 | ECL signal [31]: 45500 | ECL signal [32]: 803 | ECL signal [33]: 212 | ECL signal [34]: 493
B3: Fab VH5-51_IGHD5-18*01>3_IGHJ4*01 G100K/G104T G24A & V3-4_IGLJ1*01 (Fab, V domains shown)
VH: EVQLVQSGAEVKKPGESLKISCKASGYSFTSYWIGWVRQMPGKGLEWMGIIYPGDSDTRYSPSFQGQVTISADKSISTAYLQWSSLKASDTAMYYCARRKYSYTYDYFDYWGQGTLVTVSS
VL: QTVVTQEPSFSVSPGGTVTLTCGLSSGSVSTSYYPSWYQQTPGQAPRTLIYSTNTRSSGVPDRFSGSILGNKAALTITGAQADDESDYYCVLYMGSGISYVFGTGTKVTVL
notes: Fab made in E. coli; VH cloned into Plasmid A (CH1, His6 and Flag tags), lambda VL into Plasmid E (lambda CL); also called KT G24A
